# Measured values as given in the supplement of paper PMC9170038.
# Test system: MS2 coat protein
# Assay: apparent KD of MS2 coat protein; higher = weaker reporter binding
# Settings: Eterna round: R107; input ligand: theophylline 2 mM
# Protocol: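 RNA-MaP round R107: designed RNA switches with theophylline, tryptophan, arginine or FMN aptamers are transcribed on-chip within common flanks. They are titrated with SNAP-549-labelled MS2 coat protein in RNA-MaP buffer (100 mM Tris pH 7.5, 80 mM KCl, 4 mM MgCl2), without ligand or with the indicated ligand. Median apparent KD per design.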
row,Sequence,apparent KD of MS2 coat protein
1,UUGCCCAGUACGGCCGCCACUGUGUGCAGGGAACCCAGGUCCACAUGAGGAUCACCCAUGUACAGCAGGACCGGGUACUUGCAAU [Ininladia],10.6 nM
2,UACGUGGAUGCGGCCGCCACUGCUCUGAGCGAGUUGCUCUAUGGACAUGAGGAUCACCCAUGUCACAGGACCGGGCACGCUUUAA [theeternabot_sameState_MS2_Trp_B_50],10.6 nM
3,UGCAUUAUACAUGGAUCACCCAUGUAGACACGAGGACCGGUACGGCCGCCACUCGGAAGAGGAAACAUGAGGAUCACCCAUGUGA [Try A SS t2],105 nM
4,AGACUUCGCAUAGGAAAACUAUGUGAAGUCCGAGGACCGGUACGGCCGCCACUCGUCCUCAACAUGAGGAUCACCCAUGUAAUAA [#OpenEnded #CuTurnoff #Tail],23.5 nM
5,UCACAUGAGGAUCACCCAUGUAUAGUUGAAGGAGCGAUCAGGAGGUCAGGUAGGUCGCAGCACAUGAGGAUCACCCAUGUAUCGA [DOUBLE!!! :-D #4],50.4 nM
6,UUCGCGGCCGCGCUGCACAUGUGUGUGUUACGAGGACCGGUACGGCCGCCACUCGCGAUCGCACAUGAGGAUCACCCAUGUGGGA [Exclusion Tryp A GF17],75.6 nM
7,UCGGGCAGAGCGGCCGCCACUGUUUGGCGUGCGGAUGACGGAACAUGAGGAUCACCCAUGUUGUUUAGGACCGGGCUUGCGGCGU [ipimullin],14 nM
8,UACAUAUGCCGAAGGAGCGCGAGAUGCAAAGCAUCAAUCCUUACAUGAGGAUCACCCAUGUCGCAGGUAGGUCGCGGCAUAUGUU [ArgBX 2],44.7 nM
9,GAUAUAUAGGCGGCCGCCACUGAUUUUCAUAUAUAUAUAACAUGAGGAUCACCCAUGUAGAUAUACAGGACCGGGCCUAUAUAUU [aaaB],16 nM
10,UGAUCCUGCAGGGAUACCAGCGCCGCUAGAUAACUAUGCACAUGAGGAUCACCCAUGUAACGCCCUUGGCAGCCCAACUAAAGGG [Same State Theophylline B GF21],26.7 nM
11,AGAGCAUUGACGGCCGCCACUCAUGUCACAUGAGGAUCACCCAUGUGAUGGGUAAUUGCCCGGUUGAGGACCGGGUCAAUGCUCA [Omei Tryp SS B v4],10.1 nM
12,AAAACACAUGAGGAUCACCCAUGUCAUGAUACCAGUCAACAUGAGGACCCUUGGCAGCAUAAAAUGGGUAACAUGAGGAUCACCC [AstrosEXyTheA#1],102 nM

# Same assay, conditions: Eterna round: R107; input ligand: tryptophan 2.4 mM
row,Sequence,apparent KD of MS2 coat protein
1,GCGGUACGUACUGAUACCAGAGACAUGAGGAUCACCCAUGUCCCAUGGUCAUGCCUCAGACUCCCUUGGCAGCAGGAUAAGUGCG [Exclusion Theophylline B GF3],12.8 nM
2,UGGUACAUGGCGGCCGCCACUGGGUUGAAAACCUGAGGAUCACCCUGGUAAAACGCGAAAGCGACUAGGACCGGGUCAUGUACCU,70.5 nM
3,GUCUGUGUCUGAAGGAGCGACAUGAGGAUCACCCAUGUCUCCCGUUAUGGGAGUUCCUUAGGUCAGGUAGGUCGCAGACACAGAC [#1 Exclusion - Arginine B Attempt #27 (Inspired by Omei)],107 nM
4,ACAUGAGGAUCACCCAUGUAAAUAGCGGAAGGAGCGUGCAAAAGCACAGGUAGGUCGCCGAUAUAAUAAUUGGGUAAUAUAUUAU [#27 Exclusion - Arginine A],26.9 nM
5,AUAACACAUGAGGAUCACCCAUGUAAGGAUACCAGUUUCUGAUUAAACCCUUGGCAGCCUAGAGAUAGUCAUGUAAUAACGGCGA [theeternabot_sameState_MS2_Theo_A_19],12.2 nM
6,UAGAUAGAGGGAAGGAGCGCGAUAACAUAACAUGAGGAUCACCCAUGUAAGAAAUUAAUAAUGCAGGUAGGUCGCCCAAGAUGAU [Same State Arginine B gf1],17.1 nM
7,AUAACAUGAGGAUCACCCAUGUAAGCUGAAGGAGCGCUGGAAACAGCAGGUAGGUCGCAGCGGCGACCUUCAUGGGUAAGGUCGC [(M1)-(M2)-(Arg1)-(Arg2)-(A)'-(M)'-(A)''_Design4],30.4 nM
8,AGCGACAUGCGUGAUACCAGCUACAUGAGGAUCACCCAUGUCAGCAGGGAACUGCUGUGUAGCCCUUGGCAGCACAGUGCAUGUC [Exclusion - Theophylline B (Freestyle 29)],10.2 nM
9,AGAAUAACACAUGAGGAUCACCCAUGUGAUACCAGCUAGGAAACUAGCCCUUGGCAGCACAUAAGGUGAUCCAGCUGCCAAGAAU [(M1)-(M2)-(T1)-(T2)-(M)'-(T)'_Design1_2/19/17],102 nM
10,CUAUGCAGGUCGGCCGCCACUACACACAUGAGGAUCACCCAUGUAGUUACUGGGUGAAGUGGCAGUAGGACCGGGACCUGCAUAC [Brourdmod10],362 nM
11,AGCCACUCGAGUGAUCCUCACGAGUGGCAACGAGGACCGGUACGGCCGCCACUCGAAUCAACAUGAGGAUCACCCAUGUAAUAAU [Brourdmod01],97.7 nM
12,CGAUAUAUACGAAGGAGCGACAUGAGGAUCACCCAUGUCUACCACGUCGAAAGACGCUCAUGUCAGGUAGGUCGCGUAUAUAUCG [Astros-Eli-mod9],117 nM
13,CCGACAUGAGGAUCACCCAUGUGAACAGAUACCAGUCUGGUAAUAGACCCUUGGCAGCUGAACCAGGAAACUAUGGUGAUCCUGG [Theo A SS t3],83.6 nM
14,AGCCAUGGAAACAUGGCGGCGGCAUGAGCGCGAGGACCGGUACGGCCGCCACUCGGGCGACAUGAGGAUCACCCAUGUUCCUCAU [ETA NP+V+V2 #22 Same Structure],422 nM
15,ACAUGAGGAUCACCCAUGUUCCUCAUUGAUACCAGUGAAUUUAGACGCCCUUGGCAGCGAGUUUUUUAAGAAGAAGUUUUUUUUU [6.E],992 nM
16,UUGCAUAUCUUGGAUACCAGCACAUGAGGAUCACCCAUGUCCGCGGGAUAGCUCCAGAUGUGCCCUUGGCAGCCACAUGCACUUG [Quinzama],10.7 nM
17,ACUAGUUGUGCAGAUACCAGACACGAGGAUCACCCGUGUUUGGGAUGUUCGCAUCUUCCUGUCCCUUGGCAGCUGUACAUCUAGA [Omei Theo B Exc v8],17 nM
18,UAAUAAAUAAGUGAUACCAGCGAGAAAACAUGAGGAUCACCCAUGUUCGCCCAUGUUAAGCGCCCUUGGCAGCACAAAUAUAAAA [AstrosExyTheB#1],33.6 nM
19,CGCAAGCAACAUGAGGAUCACCCAUGUGAAGGAGCGCCGAAUAAGGCAGGUAGGUCGCACAUGAAUAAAUCAUGUAAAAGCUUGC [MAT - Exclusion Arginine A - Mod of Eli - D22],58.3 nM
20,AGCACGGUGAUGGUAGCCGGACGCUAAGUACGAGGACCGGUACGGCCGCCACUCGGAGUCCUACGACAUGAGGAUCACCCAUGUA [Same State Trp A GF12],33.6 nM
21,UCACAUGAGGAUCACCCAUGUAUAGUUGAAGGAGCGAUCAGGAGGUCAGGUAGGUCGCAGCACAUGAGGAUCACCCAUGUAUCGA [DOUBLE!!! :-D #4],59.5 nM
22,UUCGCGGCCGCGCUGCACAUGUGUGUGUUACGAGGACCGGUACGGCCGCCACUCGCGAUCGCACAUGAGGAUCACCCAUGUGGGA [Exclusion Tryp A GF17],1040 nM
23,GCCAGACAUGAGGAUCACCCAUGUAGCGAUACCAGCUCUGUUGUGAGCCCUUGGCAGCGCACUGGCAUCGUAGGUGAUCCAAUAA [(T)''-(Ms2)-(Theo)-(T)'-(M)'_Design1],45.9 nM
24,UCGGGCAGAGCGGCCGCCACUGUUUGGCGUGCGGAUGACGGAACAUGAGGAUCACCCAUGUUGUUUAGGACCGGGCUUGCGGCGU [ipimullin],12.1 nM
25,UACAUAUGCCGAAGGAGCGCGAGAUGCAAAGCAUCAAUCCUUACAUGAGGAUCACCCAUGUCGCAGGUAGGUCGCGGCAUAUGUU [ArgBX 2],36.1 nM
26,UGAUCCUGCAGGGAUACCAGCGCCGCUAGAUAACUAUGCACAUGAGGAUCACCCAUGUAACGCCCUUGGCAGCCCAACUAAAGGG [Same State Theophylline B GF21],35.2 nM
27,AGAGCAUUGACGGCCGCCACUCAUGUCACAUGAGGAUCACCCAUGUGAUGGGUAAUUGCCCGGUUGAGGACCGGGUCAAUGCUCA [Omei Tryp SS B v4],9.74 nM
28,AAAACACAUGAGGAUCACCCAUGUCAUGAUACCAGUCAACAUGAGGACCCUUGGCAGCAUAAAAUGGGUAACAUGAGGAUCACCC [AstrosEXyTheA#1],50.5 nM
